The test has as its target GST-tagged wild type human UBQLN2 (human, UniProt Q9UHD9 1-624). Briefly: pull-down.

The values that follow come from paper PMC9792439 (Biochimica et biophysica acta. General subjects, 2022).

Sequence of GST-tagged wild type human UBQLN2 (Q9UHD9 whole entry): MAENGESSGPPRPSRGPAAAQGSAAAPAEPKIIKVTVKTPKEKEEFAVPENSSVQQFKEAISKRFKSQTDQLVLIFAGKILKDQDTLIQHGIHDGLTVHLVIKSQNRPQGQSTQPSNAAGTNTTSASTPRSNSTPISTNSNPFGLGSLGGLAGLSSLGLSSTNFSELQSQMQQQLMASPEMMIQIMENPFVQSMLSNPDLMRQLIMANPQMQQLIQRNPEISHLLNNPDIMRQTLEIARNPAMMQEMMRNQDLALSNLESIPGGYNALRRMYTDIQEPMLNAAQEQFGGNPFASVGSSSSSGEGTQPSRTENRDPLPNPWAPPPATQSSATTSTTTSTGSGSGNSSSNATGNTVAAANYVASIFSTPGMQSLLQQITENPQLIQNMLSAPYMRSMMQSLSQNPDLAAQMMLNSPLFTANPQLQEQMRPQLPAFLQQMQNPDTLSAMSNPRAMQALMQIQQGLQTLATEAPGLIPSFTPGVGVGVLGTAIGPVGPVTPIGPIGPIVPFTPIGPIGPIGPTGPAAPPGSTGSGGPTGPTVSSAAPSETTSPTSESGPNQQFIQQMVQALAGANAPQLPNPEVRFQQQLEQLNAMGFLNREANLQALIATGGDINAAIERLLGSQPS

B1: HSPA1B ATP-binding domain (1 to 385 aa) with 6 His tag (domain or fragment)
chain: not shown
For the molecule B1, the binding result was “binds”.
